Assay results taken from article PMC2990405.

Target: Canonical-type transient receptor potential cation channel type 3 (TRPC3) (rabbit (endogenous in skeletal muscle))
Assay: co-IP

- ratio of GST-band/TRPC3-band intensities normalised to F1-1 (set as 1): 0.25
Substance: GST-JP2 fragment F1-3 (a.a. 143-215) (from UniProt Q9ET78 143-215) (domain or fragment)
